Reference: PMC2926940 (Nature structural & molecular biology, 2010)
Positions count from the first letter of the chain named. Names may count otherwise.

T1: Abl SH2 domain, His-tagged (immobilised for SPR) (human, UniProt P00519-2)
T1 sequence: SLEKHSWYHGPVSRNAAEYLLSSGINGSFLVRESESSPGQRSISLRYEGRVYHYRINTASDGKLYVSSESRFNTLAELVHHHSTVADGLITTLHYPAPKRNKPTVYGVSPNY

B1: HA4 Y36A (designed binder)
chain: GSSVSSVPTKLEVVAATPTSLLISWDAPMSSSSVYAYRITYGETGGNSPVQEFTVPYSSSTATISGLSPGVDYTITVYAWGEDSAGYMFMYSPISINYRTC
B2: HA4 M88A (designed binder)
chain: B1 chain with A36Y, M88A
B3: HA4_(Y87A) (designed binder)
chain: B1 chain with A36Y, Y87A
B4: HA4 W80A (designed binder)
chain: B1 chain with A36Y, W80A

What was measured:
[1] = molecular target: c-Jun phosphopeptide (Homo sapiens) (UniProt P05412); conditions: cited from earlier work
c-Jun phosphopeptide (Homo sapiens), sequence (P05412 whole entry, the tested form may be a part): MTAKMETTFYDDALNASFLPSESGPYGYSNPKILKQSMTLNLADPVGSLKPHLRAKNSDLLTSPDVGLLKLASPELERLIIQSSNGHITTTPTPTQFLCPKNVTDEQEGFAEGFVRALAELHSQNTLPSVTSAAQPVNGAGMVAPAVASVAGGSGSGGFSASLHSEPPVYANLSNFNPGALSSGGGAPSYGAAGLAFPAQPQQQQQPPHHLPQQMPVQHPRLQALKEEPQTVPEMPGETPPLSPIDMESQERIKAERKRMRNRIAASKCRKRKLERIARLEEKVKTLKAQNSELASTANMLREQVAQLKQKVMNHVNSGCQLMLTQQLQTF

[2] = molecular target: Abl SH2 domain, His-tagged (immobilised for SPR) (human) (UniProt P00519); test: SPR
[3] = molecular target: Grb7 SH2 spotted on the SH2 microarray (UniProt Q14451); test: peptide or protein array
Grb7 SH2 spotted on the SH2 microarray, sequence (Q14451 431-527): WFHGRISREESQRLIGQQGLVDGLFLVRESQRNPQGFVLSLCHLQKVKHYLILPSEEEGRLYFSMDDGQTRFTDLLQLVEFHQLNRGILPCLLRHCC

[4] = molecular target: Abl SH2 domain spotted on the SH2 microarray (human); test: peptide or protein array
[5] = molecular target: tandem SH2 domains of Syk spotted on the SH2 microarray; test: peptide or protein array
[6] = molecular target: Blk SH2 domain spotted on the SH2 microarray (UniProt P51451); test: peptide or protein array
Blk SH2 domain spotted on the SH2 microarray, sequence (P51451 124-220): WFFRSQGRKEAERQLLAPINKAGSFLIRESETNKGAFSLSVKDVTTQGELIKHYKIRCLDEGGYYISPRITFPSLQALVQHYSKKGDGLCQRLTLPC

[7] = molecular target: Abl2 (Arg) SH2 domain spotted on the SH2 microarray (UniProt P42684); test: peptide or protein array
Abl2 (Arg) SH2 domain spotted on the SH2 microarray, sequence (P42684 173-263): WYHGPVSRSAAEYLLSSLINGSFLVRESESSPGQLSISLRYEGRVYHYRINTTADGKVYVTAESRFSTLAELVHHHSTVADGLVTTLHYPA

[8] = molecular target: T1, Abl SH2 domain, His-tagged (immobilised …); test: SPR

| Molecule | ΔΔG of binding against HA4 [2] | ΔΔG of binding against HA4 [8] | also measured |
| --- | --- | --- | --- |
| Abl SH2 (from UniProt P00519) | – | – | Kd [1]: 7000 nM |
| HA4 Y35A (designed binder) | 0.8 kcal/mol | – | – |
| HA4 R38A (designed binder) | 2.2 kcal/mol | – | – |
| HA4 E52A (designed binder) | 2.4 kcal/mol | – | – |
| monobody HA4 (designed binder) | – | – | Kd [2]: 7 nM |
| monobody HA4 labelled with DyLight 800 (designed binder) | – | – | Kd [3]: 169 nM; Kd [4]: 22 nM; Kd [5]: 28 nM; Kd [6]: 109 nM; Kd [7]: 18 nM |
| B1 | – | ≥ 3.8 kcal/mol | – |
| B2 | – | ≥ 3.8 kcal/mol | – |
| B3 | – | ≥ 3.8 kcal/mol | – |
| B4 | – | ≥ 3.8 kcal/mol | – |
